Laboratory results reported in patent US20250352667A1.
Blank lines part the entries; values can stand above or below the binder they belong to.

Tests used:
[1] = molecular target: KEAP1 (wild-type full-length), His-tagged (human) (UniProt Q14145); test: AlphaScreen; 9.6 nM FLAG-NRF2, 150 nM His-KEAP1; wild type set to 100%
[2] = molecular target: KEAP1 (wild-type full-length), His-tagged (human) (UniProt Q14145); test: AlphaScreen; 76.8 nM FLAG-NRF2, 150 nM His-KEAP1; Rep 2; control for I28V
[3] = molecular target: KEAP1 (wild-type full-length), His-tagged (human) (UniProt Q14145); test: AlphaScreen; 614.4 nM FLAG-NRF2, 150 nM His-KEAP1; Rep 1; control for I28V
[4] = molecular target: KEAP1 (wild-type full-length), His-tagged (human) (UniProt Q14145); test: AlphaScreen; 307.2 nM FLAG-NRF2, 150 nM His-KEAP1; Rep 1; control for I86V
[5] = molecular target: KEAP1 (wild-type full-length), His-tagged (human) (UniProt Q14145); test: AlphaScreen; 1228.8 nM FLAG-NRF2, 150 nM His-KEAP1; Rep 1; control for I86V
[6] = molecular target: KEAP1 (wild-type full-length), His-tagged (human) (UniProt Q14145); test: AlphaScreen; 19.2 nM FLAG-NRF2, 150 nM His-KEAP1; signal against NRF2 only; control for I86V
[7] = molecular target: KEAP1 (wild-type full-length), His-tagged (human) (UniProt Q14145); test: AlphaScreen; 1228.8 nM FLAG-NRF2, 150 nM His-KEAP1; signal against NRF2 only; control for I28V
[8] = molecular target: KEAP1 (wild-type full-length), His-tagged (human) (UniProt Q14145); test: AlphaScreen; FLAG-NRF2 wt isoform 1 19.2 nM, His-KEAP1 150 nM; Rep 2; positive control for I86V
[9] = molecular target: KEAP1 (wild-type full-length), His-tagged (human) (UniProt Q14145); test: AlphaScreen; FLAG-NRF2 wt isoform 1 38.4 nM, His-KEAP1 150 nM; Rep 1; positive control for I86V
[10] = molecular target: KEAP1 (wild-type full-length), His-tagged (human) (UniProt Q14145); test: AlphaScreen; FLAG-NRF2 wt isoform 1 19.2 nM, His-KEAP1 150 nM; Rep 1; positive control for Q75R
[11] = molecular target: KEAP1 (wild-type full-length), His-tagged (human) (UniProt Q14145); test: AlphaScreen; FLAG-NRF2 wt isoform 1 38.4 nM, His-KEAP1 150 nM; Rep 1; positive control for Q75R
[12] = molecular target: KEAP1 (wild-type full-length), His-tagged (human) (UniProt Q14145); test: AlphaScreen; FLAG-NRF2 wt isoform 1 19.2 nM, His-KEAP1 150 nM; Repeat 1; positive control for Q75R
[13] = molecular target: KEAP1 (wild-type full-length), His-tagged (human) (UniProt Q14145); test: AlphaScreen; NRF2 wt isoform 1 4.8 nM, KEAP1 150 nM; signal against NRF2-only control; control for Q75R
[14] = molecular target: KEAP1 (wild-type full-length), His-tagged (human) (UniProt Q14145); test: AlphaScreen; NRF2 wt isoform 1 153.6 nM, KEAP1 150 nM; signal against NRF2-only control; control for Q75R
[15] = molecular target: KEAP1 (wild-type full-length), His-tagged (human) (UniProt Q14145); test: AlphaScreen; NRF2 wt isoform 1 614.4 nM, KEAP1 150 nM; signal against NRF2-only control; control for Q75R
[16] = molecular target: KEAP1 (wild-type full-length), His-tagged (human) (UniProt Q14145); test: AlphaScreen, all variants on one plate; lower condition (9.6 nM NRF2), KEAP1 150 nM; the reference itself
[17] = molecular target: KEAP1 (wild-type full-length), His-tagged (human) (UniProt Q14145); test: AlphaScreen; FLAG-NRF2 Q75R 614.4 nM, His-KEAP1 150 nM; Rep 1
[18] = molecular target: KEAP1 (wild-type full-length), His-tagged (human) (UniProt Q14145); test: AlphaScreen; FLAG-NRF2 Q75R 19.2 nM, His-KEAP1 150 nM; Repeat 1
[19] = molecular target: KEAP1 (wild-type full-length), His-tagged (human) (UniProt Q14145); test: AlphaScreen; FLAG-NRF2 I86V 2.4 nM, His-KEAP1 150 nM; Rep 1
[20] = molecular target: KEAP1 (wild-type full-length), His-tagged (human) (UniProt Q14145); test: AlphaScreen; FLAG-NRF2 I86V 2.4 nM, His-KEAP1 150 nM; Rep 3
[21] = molecular target: KEAP1 (wild-type full-length), His-tagged (human) (UniProt Q14145); test: AlphaScreen; NRF2 I86V 19.2 nM, KEAP1 150 nM; signal against NRF2-only control
[22] = molecular target: KEAP1 (wild-type full-length), His-tagged (human) (UniProt Q14145); test: AlphaScreen; NRF2 I86V 307.2 nM, KEAP1 150 nM; signal against NRF2-only control
[23] = molecular target: KEAP1 (wild-type full-length), His-tagged (human) (UniProt Q14145); test: AlphaScreen; NRF2 I86V 19.2 nM, KEAP1 150 nM; relative to wild-type NRF2 isoform 1 (100 %)
[24] = molecular target: KEAP1 (wild-type full-length), His-tagged (human) (UniProt Q14145); test: AlphaScreen; 19.2 nM FLAG-NRF2, 150 nM His-KEAP1; Rep 2
[25] = molecular target: KEAP1 (wild-type full-length), His-tagged (human) (UniProt Q14145); test: AlphaScreen; 1228.8 nM FLAG-NRF2, 150 nM His-KEAP1; Rep 1
[26] = molecular target: KEAP1 (wild-type full-length), His-tagged (human) (UniProt Q14145); test: AlphaScreen; 4.8 nM FLAG-NRF2, 150 nM His-KEAP1; signal against NRF2 only
[27] = molecular target: KEAP1 (wild-type full-length), His-tagged (human) (UniProt Q14145); test: AlphaScreen; 9.6 nM FLAG-NRF2, 150 nM His-KEAP1; signal against NRF2 only

Sequence of KEAP1 (wild-type full-length), His-tagged (human) (Q14145 2-624 limits assumed): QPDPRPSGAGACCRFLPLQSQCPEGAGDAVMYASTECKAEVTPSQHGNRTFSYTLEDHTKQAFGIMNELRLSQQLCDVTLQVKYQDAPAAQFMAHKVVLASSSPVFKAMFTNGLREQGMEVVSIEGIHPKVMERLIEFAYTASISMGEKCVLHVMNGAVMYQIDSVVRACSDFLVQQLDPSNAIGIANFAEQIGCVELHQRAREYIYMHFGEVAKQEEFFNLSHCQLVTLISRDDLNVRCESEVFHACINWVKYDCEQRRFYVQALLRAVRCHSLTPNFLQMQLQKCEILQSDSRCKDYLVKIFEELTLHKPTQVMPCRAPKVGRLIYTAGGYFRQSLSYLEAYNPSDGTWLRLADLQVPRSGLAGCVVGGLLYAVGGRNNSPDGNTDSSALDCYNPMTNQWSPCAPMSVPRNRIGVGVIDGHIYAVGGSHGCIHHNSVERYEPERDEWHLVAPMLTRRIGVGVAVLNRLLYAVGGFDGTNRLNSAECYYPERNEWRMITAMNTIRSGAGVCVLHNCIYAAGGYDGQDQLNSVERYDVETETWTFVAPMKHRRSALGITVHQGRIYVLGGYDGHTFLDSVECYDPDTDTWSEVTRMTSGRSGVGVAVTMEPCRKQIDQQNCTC

Binding Percentage (%) [1]: 100%
A-counts [2]: 1970 A-counts
A-counts [3]: 1780 A-counts
A-counts [4]: 2640 A-counts
A-counts [5]: 2930 A-counts
S/N [6]: 4.1
S/N [7]: 1
A-counts (NRF2 plus KEAP1) [8]: 3270 A-counts
A-counts (NRF2 plus KEAP1) [9]: 3100 A-counts
A-counts (NRF2 plus KEAP1) [10]: 1360 A-counts
A-counts (NRF2 plus KEAP1) [11]: 1480 A-counts
A-counts (NRF2 plus KEAP1) [12]: 1360 A-counts
S/N [13]: 2.5
S/N [14]: 2.1
S/N [15]: 1
% Disruption in Binding [16]: 0%
B1: NRF2 isoform 1 (wild-type full-length), FLAG-tagged (protein)
chain: MMDLELPPPGLPSQQDMDLIDILWRQDIDLGVSREVFDFSQRRKEYELEKQKKLEKERQEQLQKEQEKAFFAQLQLDEETGEFLPIQPAQHIQSETSGSANYSQVAHIPKSDALYFDDCMQLLAQTFPFVDDNEVSSATFQSLVPDIPGHIESPVFIATNQAQSPETSVAQVAPVDLDGMQQDIEQVWEELLSIPELQCLNIENDKLVETTMVPSPEAKLTEVDNYHFYSSIPSMEKEVGNCSPHFLNAFEDSFSSILSTEDPNQLTVNSLNSDATVNTDFGDEFYSAFIAEPSISNSMPSPATLSHSLSELLNGPIDVSDLSLCKAFNQNHPESTAEFNDSDSGISLNTSPSVASPEHSVESSSYGDTLLGLSDSEVEELDSAPGSVKQNGPKTPVHSSGDMVQPLSPSQGQSTHVHDAQCENTPEKELPVSPGHRKTPFTKDKHSSRLEAHLTRDELRAKALHIPFPVEKIINLPVVDFNEMMSKEQFNEAQLALIRDIRRRGKNKVAAQNCRKRKLENIVELEQDLDHLKDEKEKLLKEKGENDKSLHLLKKQLSTLYLEVFSMLRDEDGKPYSPSEYSLQQTRDGNVFLVPKSKKPDVKKN

A-counts (NRF2 plus KEAP1) [17]: 855 A-counts
A-counts (NRF2 plus KEAP1) [18]: 1300 A-counts
B2: NRF2 isoform 1 (Q75R full-length), FLAG-tagged (protein)
chain: MMDLELPPPGLPSQQDMDLIDILWRQDIDLGVSREVFDFSQRRKEYELEKQKKLEKERQEQLQKEQEKAFFAQLRLDEETGEFLPIQPAQHIQSETSGSANYSQVAHIPKSDALYFDDCMQLLAQTFPFVDDNEVSSATFQSLVPDIPGHIESPVFIATNQAQSPETSVAQVAPVDLDGMQQDIEQVWEELLSIPELQCLNIENDKLVETTMVPSPEAKLTEVDNYHFYSSIPSMEKEVGNCSPHFLNAFEDSFSSILSTEDPNQLTVNSLNSDATVNTDFGDEFYSAFIAEPSISNSMPSPATLSHSLSELLNGPIDVSDLSLCKAFNQNHPESTAEFNDSDSGISLNTSPSVASPEHSVESSSYGDTLLGLSDSEVEELDSAPGSVKQNGPKTPVHSSGDMVQPLSPSQGQSTHVHDAQCENTPEKELPVSPGHRKTPFTKDKHSSRLEAHLTRDELRAKALHIPFPVEKIINLPVVDFNEMMSKEQFNEAQLALIRDIRRRGKNKVAAQNCRKRKLENIVELEQDLDHLKDEKEKLLKEKGENDKSLHLLKKQLSTLYLEVFSMLRDEDGKPYSPSEYSLQQTRDGNVFLVPKSKKPDVKKN

A-counts (NRF2 plus KEAP1) [19]: 1730 A-counts
A-counts (NRF2 plus KEAP1) [20]: 1680 A-counts
S/N [21]: 4
S/N [22]: 1.3
Binding Percentage [23]: 97.8%
B3: NRF2 isoform 1 (I86V full-length), FLAG-tagged (protein)
chain: MMDLELPPPGLPSQQDMDLIDILWRQDIDLGVSREVFDFSQRRKEYELEKQKKLEKERQEQLQKEQEKAFFAQLQLDEETGEFLPVQPAQHIQSETSGSANYSQVAHIPKSDALYFDDCMQLLAQTFPFVDDNEVSSATFQSLVPDIPGHIESPVFIATNQAQSPETSVAQVAPVDLDGMQQDIEQVWEELLSIPELQCLNIENDKLVETTMVPSPEAKLTEVDNYHFYSSIPSMEKEVGNCSPHFLNAFEDSFSSILSTEDPNQLTVNSLNSDATVNTDFGDEFYSAFIAEPSISNSMPSPATLSHSLSELLNGPIDVSDLSLCKAFNQNHPESTAEFNDSDSGISLNTSPSVASPEHSVESSSYGDTLLGLSDSEVEELDSAPGSVKQNGPKTPVHSSGDMVQPLSPSQGQSTHVHDAQCENTPEKELPVSPGHRKTPFTKDKHSSRLEAHLTRDELRAKALHIPFPVEKIINLPVVDFNEMMSKEQFNEAQLALIRDIRRRGKNKVAAQNCRKRKLENIVELEQDLDHLKDEKEKLLKEKGENDKSLHLLKKQLSTLYLEVFSMLRDEDGKPYSPSEYSLQQTRDGNVFLVPKSKKPDVKKN

A-counts [24]: 1700 A-counts
A-counts [25]: 995 A-counts
S/N [26]: 2.9
S/N [27]: 3.4
B4: NRF2 isoform 1 (I28V full-length), FLAG-tagged (protein)
chain: MMDLELPPPGLPSQQDMDLIDILWRQDVDLGVSREVFDFSQRRKEYELEKQKKLEKERQEQLQKEQEKAFFAQLQLDEETGEFLPIQPAQHIQSETSGSANYSQVAHIPKSDALYFDDCMQLLAQTFPFVDDNEVSSATFQSLVPDIPGHIESPVFIATNQAQSPETSVAQVAPVDLDGMQQDIEQVWEELLSIPELQCLNIENDKLVETTMVPSPEAKLTEVDNYHFYSSIPSMEKEVGNCSPHFLNAFEDSFSSILSTEDPNQLTVNSLNSDATVNTDFGDEFYSAFIAEPSISNSMPSPATLSHSLSELLNGPIDVSDLSLCKAFNQNHPESTAEFNDSDSGISLNTSPSVASPEHSVESSSYGDTLLGLSDSEVEELDSAPGSVKQNGPKTPVHSSGDMVQPLSPSQGQSTHVHDAQCENTPEKELPVSPGHRKTPFTKDKHSSRLEAHLTRDELRAKALHIPFPVEKIINLPVVDFNEMMSKEQFNEAQLALIRDIRRRGKNKVAAQNCRKRKLENIVELEQDLDHLKDEKEKLLKEKGENDKSLHLLKKQLSTLYLEVFSMLRDEDGKPYSPSEYSLQQTRDGNVFLVPKSKKPDVKKN
